Laboratory results reported in the RNAGym collection of RNA variant scans (doi:10.1093/molbev/msab373).

B1: Azoarcus group I ribozyme (parent)
chain: GUGCCUUGCGCCGGGAAACCACGCAAGGGAUGGUGUCAAAUUCGGCGAAACCUAAGCGCCCGCCCGGGCGUAUGGCAACGCCGAGCCAAGCUUCGGCGCCUGCGCCGAUGAAGGUGUAGAGACUAGACGGCACCCACCUAAGGCAAACGCUAUGGUGAAGGCAUAGUCCAGGGAGUGGCGAAAGUCACACAAACCGG

Variants of: B1
Experiment: reverse-splicing fitness (ratio to wild type); higher = more active; in vitro selection; Mg2+ level not given
Procedure, shortened: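 An in vitro group I ribozyme library with randomized positions was T7-transcribed and gel-purified. In triplicate, 10 pmol RNA in EPPS pH 7.5 was reacted with 50 pmoles of a 30-nt RNA substrate for 1 h at 37 °C across several added MgCl2 levels (1–48 mM), then stopped with EDTA. Products were reverse transcribed from a substrate-complementary primer, PCR-amplified and sequenced (HiSeq 4000). Fitness is a variant's read proportion after selection over that before, normalised to wild type.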

Variant	reverse-splicing fitness
GUGCCUUGCGCCGGGAAACCACGCAAGGGAUGGUGUCAAAUUCGGCGAAACCUAAGCGCCCGCCCGGGCGUAUGGCAACGCUGAGCCAAGCUUCGGCGCCUGCGCCGAUGAAGGUGUAGGGACUAGACGGCACCCACCUAAGGCAAACGCUAUGGUGAAGGCAUAGUCUAGGGAGCGGCGAAAGUCACACAAACCGG [C82U A120G C169U U176C]	0.0176
GUGCCUUGCGCCGGGAAACCACGCAAGGGAUGGUGUCAAAUUCGGCGAAACCUAAGCGCCCGCCCGGGCGUAUGGCAACGCUGAGCCAAGCUUCGGCGCCUGCGCCGAUGAAGGUGUAGGGACUAGACGGCACCCACCUAAGGCAAACGCUAUGGUGAAGGCAUAGUCUAGGGAGGGGCGAAAGUCACACAAACCGG [C82U A120G C169U U176G]	0.0054
GUGCCUUGCGCCGGGAAACCACGCAAGGGAUGGUGUCAAAUUCGGCGAAACCUAAGCGCCCGCCCGGGCGUAUGGCAACGCUGAGCCAAGCUUCGGCGCCUGCGCCGAUGAAGGUGUAGGGACUAGACGGCACCCACCUAAGGCAAACGCUAUGGUGAAGGCAUAGUCUAGGGAGAGGCGAAAGUCACACAAACCGG [C82U A120G C169U U176A]	0.0244
GUGCCUUGCGCCGGGAAACCACGCAAGGGAUGGUGUCAAAUUCGGCGAAACCUAAGCGCCCGCCCGGGCGUAUGGCAACGCUGAGCCAAGCUUCGGCGCCUGCGCCGAUGAAGGUGUAGUGACUAGACGGCACCCACCUAAGGCCAACGAUAUGGUGAAGGCAUAGUCAAGGGAGAGGCGAAAGUCACACAAACCGG [C82U A120U A145C C150A C169A U176A]	0.00177
GUGCCUUGCGCCGGGAAACCACGCAAGGGAUGGUGUCAAAUUCGGCGAAACCUAAGCGCCCGCCCGGGCGUAUGGCAACGCUGAGCCAAGCUUCGGCGCCUGCGCCGAUGAAGGUGUAGUGACUAGACGGCACCCACCUAAGGCCAACGAUAUGGUGAAGGCAUAGUCAAGGGAGCGGCGAAAGUCACACAAACCGG [C82U A120U A145C C150A C169A U176C]	0.00171
GUGCCUUGCGCCGGGAAACCACGCAAGGGAUGGUGUCAAAUUCGGCGAAACCUAAGCGCCCGCCCGGGCGUAUGGCAACGCUGAGCCAAGCUUCGGCGCCUGCGCCGAUGAAGGUGUAGUGACUAGACGGCACCCACCUAAGGCCAACGAUAUGGUGAAGGCAUAGUCAAGGGAGGGGCGAAAGUCACACAAACCGG [C82U A120U A145C C150A C169A U176G]	0.00165
GUGCCUUGCGCCGGGAAACCACGCAAGGGAUGGUGUCAAAUUCGGCGAAACCUAAGCGCCCGCCCGGGCGUAUGGCAACGCUGAGCCAAGCUUCGGCGCCUGCGCCGAUGAAGGUGUAGUGACUAGACGGCACCCACCUAAGGCCAACGGUAUGGUGAAGGCAUAGUCCAGGGAGUGGCGAAAGUCACACAAACCGG [C82U A120U A145C C150G]	0.0193
GUGCCUUGCGCCGGGAAACCACGCAAGGGAUGGUGUCAAAUUCGGCGAAACCUAAGCGCCCGCCCGGGCGUAUGGCAACGCUGAGCCAAGCUUCGGCGCCUGCGCCGAUGAAGGUGUAGUGACUAGACGGCACCCACCUAAGGCCAACGAUAUGGUGAAGGCAUAGUCCAGGGAGUGGCGAAAGUCACACAAACCGG [C82U A120U A145C C150A]	0.00884
GUGCCUUGCGCCGGGAAACCACGCAAGGGAUGGUGUCAAAUUCGGCGAAACCUAAGCGCCCGCCCGGGCGUAUGGCAACGCUGAGCCAAGCUUCGGCGCCUGCGCCGAUGAAGGUGUAGUGACUAGACGGCACCCACCUAAGGCCAACGAUAUGGUGAAGGCAUAGUCUAGGGAGCGGCGAAAGUCACACAAACCGG [C82U A120U A145C C150A C169U U176C]	0.00195
GUGCCUUGCGCCGGGAAACCACGCAAGGGAUGGUGUCAAAUUCGGCGAAACCUAAGCGCCCGCCCGGGCGUAUGGCAACGCUGAGCCAAGCUUCGGCGCCUGCGCCGAUGAAGGUGUAGUGACUAGACGGCACCCACCUAAGGCCAACGAUAUGGUGAAGGCAUAGUCUAGGGAGAGGCGAAAGUCACACAAACCGG [C82U A120U A145C C150A C169U U176A]	0.00218
GUGCCUUGCGCCGGGAAACCACGCAAGGGAUGGUGUCAAAUUCGGCGAAACCUAAGCGCCCGCCCGGGCGUAUGGCAACGCUGAGCCAAGCUUCGGCGCCUGCGCCGAUGAAGGUGUAGUGACUAGACGGCACCCACCUAAGGCCAACGAUAUGGUGAAGGCAUAGUCUAGGGAGGGGCGAAAGUCACACAAACCGG [C82U A120U A145C C150A C169U U176G]	0.00151
GUGCCUUGCGCCGGGAAACCACGCAAGGGAUGGUGUCAAAUUCGGCGAAACCUAAGCGCCCGCCCGGGCGUAUGGCAACGCUGAGCCAAGCUUCGGCGCCUGCGCCGAUGAAGGUGUAGGGACUAGACGGCACCCACCUAAGGCAAACGCUAUGGUGAAGGCAUAGUCCAGGGAGAGGCGAAAGUCACACAAACCGG [C82U A120G U176A]	0.0132
GUGCCUUGCGCCGGGAAACCACGCAAGGGAUGGUGUCAAAUUCGGCGAAACCUAAGCGCCCGCCCGGGCGUAUGGCAACGCUGAGCCAAGCUUCGGCGCCUGCGCCGAUGAAGGUGUAGGGACUAGACGGCACCCACCUAAGGCAAACGCUAUGGUGAAGGCAUAGUCCAGGGAGCGGCGAAAGUCACACAAACCGG [C82U A120G U176C]	0.0175
GUGCCUUGCGCCGGGAAACCACGCAAGGGAUGGUGUCAAAUUCGGCGAAACCUAAGCGCCCGCCCGGGCGUAUGGCAACGCUGAGCCAAGCUUCGGCGCCUGCGCCGAUGAAGGUGUAGGGACUAGACGGCACCCACCUAAGGCAAACGCUAUGGUGAAGGCAUAGUCCAGGGAGGGGCGAAAGUCACACAAACCGG [C82U A120G U176G]	0.00399
GUGCCUUGCGCCGGGAAACCACGCAAGGGAUGGUGUCAAAUUCGGCGAAACCUAAGCGCCCGCCCGGGCGUAUGGCAACGCUGAGCCAAGCUUCGGCGCCUGCGCCGAUGAAGGUGUAGUGACUAGACGGCACCCACCUAAGGCAAACGCUAUGGUGAAGGCAUAGUCCAGGGAGUGGCGAAAGUCACACAAACCGG [C82U A120U]	0.174
